Patent US20190241648A1 (STATEN BIOTECHNOLOGY B V, published 2019)
Ends that are not written are not given here.

Legend:
Test in all cases: peptide microarray
[1] = biological target: T1, wild-type ApoC3 peptide ARGWVTDGFSSLK (SEQ ID NO: 45) (human, not fully specified (bridges); also: cyclic constrained, ring type and positions not given here)
T1 construct: 13 aa cyclic constrained peptide
T1 peptide: ARGWVTDGFSSLK
Outline: (§1)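 Peptide microarrays of ApoC3-derived peptides incubated with antibody samples, then stained with goat anti-human IgG (Fc) DyLight680 (1:5000) and anti-HA DyLight800 (1:2000) control. Read-out by fluorescence scanning at intensities 7/7 (red/green); a secondary-only pre-stain checked background, HA frame peptides served as quality control.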

ApoC3 peptide … F47A = biological target: T2, ApoC3 peptide … F47A (human, not fully specified (bridges); also: cyclic constrained)
T2 peptide: ARGWVTDGASSLK
Outline: as §1

ApoC3 peptide … S48A = biological target: T3, ApoC3 peptide … S48A (human, thioether (positions not given here); also: cyclic constrained)
T3 peptide: ARGWVTDGFASLK
Outline: as §1

ApoC3 peptide … A39C = biological target: T4, ApoC3 peptide … A39C (human, cyclic constrained)
T4 peptide: CRGWVTDGFSSLK
Outline: as §1

ApoC3 peptide … F47C = biological target: T5, ApoC3 peptide … F47C (human, not fully specified (bridges); also: cyclic constrained)
T5 peptide: ARGWVTDGCSSLK
Outline: as §1

ApoC3 peptide … D45E = biological target: T6, ApoC3 peptide … D45E (human, not fully specified (bridges); also: cyclic constrained)
T6 peptide: ARGWVTEGFSSLK
Outline: as §1

ApoC3 peptide … G46E = biological target: T7, ApoC3 peptide … G46E (human, not fully specified (bridges); also: cyclic constrained)
T7 peptide: ARGWVTDEFSSLK
Outline: as §1

ApoC3 peptide … S49E = biological target: T8, ApoC3 peptide … S49E (human, cyclic constrained)
T8 peptide: ARGWVTDGFSELK
Outline: as §1

ApoC3 peptide … V43G = biological target: T9, ApoC3 peptide … V43G (human, not fully specified; cyclic constrained)
T9 peptide: ARGWGTDGFSSLK
Outline: as §1

ApoC3 peptide … S49G = biological target: T10, ApoC3 peptide … S49G (human, cyclic constrained)
T10 peptide: ARGWVTDGFSGLK
Outline: as §1

ApoC3 peptide … S48H = ApoC3 peptide … S48H (human, cyclic constrained)
Outline: as §1

ApoC3 peptide … L50I = biological target: T11, ApoC3 peptide … L50I (human, not fully specified; cyclic constrained)
T11 peptide: ARGWVTDGFSSIK
Outline: as §1

ApoC3 peptide … S48K = ApoC3 peptide … S48K (human, cyclic constrained)
Outline: as §1

ApoC3 peptide … S49M = biological target: T12, ApoC3 peptide … S49M (human, cyclic constrained)
T12 peptide: ARGWVTDGFSMLK
Outline: as §1

ApoC3 peptide … K51M = biological target: T13, ApoC3 peptide … K51M (human, not fully specified; cyclic constrained)
T13 peptide: ARGWVTDGFSSLM
Outline: as §1

ApoC3 peptide … W42N = biological target: T14, ApoC3 peptide … W42N (human, not fully specified (bridges); also: cyclic constrained)
T14 peptide: ARGNVTDGFSSLK
Outline: as §1

ApoC3 peptide … S48N = ApoC3 peptide … S48N (human, cyclic constrained)
Outline: as §1

ApoC3 peptide … D45P = biological target: T15, ApoC3 peptide … D45P (human, cyclic constrained)
T15 peptide: ARGWVTPGFSSLK
Outline: as §1

ApoC3 peptide … R40Q = biological target: T16, ApoC3 peptide … R40Q (human, not fully specified (bridges); also: cyclic constrained)
T16 peptide: AQGWVTDGFSSLK
Outline: as §1

ApoC3 peptide … T44Q = biological target: T17, ApoC3 peptide … T44Q (human, not fully specified (bridges); also: cyclic constrained)
T17 peptide: ARGWVQDGFSSLK
Outline: as §1

ApoC3 peptide … S48Q = ApoC3 peptide … S48Q (human, cyclic constrained)
Outline: as §1

ApoC3 peptide … S49R = biological target: T18, ApoC3 peptide … S49R (human, not fully specified (bridges); also: cyclic constrained)
T18 peptide: ARGWVTDGFSRLK
Outline: as §1

ApoC3 peptide … K51R = biological target: T19, ApoC3 peptide … K51R (human, not fully specified; cyclic constrained)
T19 peptide: ARGWVTDGFSSLR
Outline: as §1

ApoC3 peptide … D45S = biological target: T20, ApoC3 peptide … D45S (human, cyclic constrained)
T20 peptide: ARGWVTSGFSSLK
Outline: as §1

ApoC3 peptide … F47S = biological target: T21, ApoC3 peptide … F47S (human, also: cyclic constrained)
T21 peptide: ARGWVTDGSSSLK
Outline: as §1

ApoC3 peptide … A39V = biological target: T22, ApoC3 peptide … A39V (human, not fully specified (bridges); also: cyclic constrained)
T22 peptide: VRGWVTDGFSSLK
Outline: as §1

ApoC3 peptide … R40V = biological target: T23, ApoC3 peptide … R40V (human, thioether (positions not given here); also: cyclic constrained)
T23 peptide: AVGWVTDGFSSLK
Outline: as §1

ApoC3 peptide … G46V = biological target: T24, ApoC3 peptide … G46V (human, thioether (positions not given here); also: cyclic constrained)
T24 peptide: ARGWVTDVFSSLK
Outline: as §1

ApoC3 peptide … R40W = biological target: T25, ApoC3 peptide … R40W (human, thioether (positions not given here); also: cyclic constrained)
T25 peptide: AWGWVTDGFSSLK
Outline: as §1

ApoC3 peptide … G46W = biological target: T26, ApoC3 peptide … G46W (human, thioether (positions not given here); also: cyclic constrained)
T26 peptide: ARGWVTDWFSSLK
Outline: as §1

ApoC3 peptide … G46Y = biological target: T27, ApoC3 peptide … G46Y (human, thioether (positions not given here); also: cyclic constrained)
T27 peptide: ARGWVTDYFSSLK
Outline: as §1

% of binding to wild-type peptide [1]: 100% | % of binding to wild-type peptide (ApoC3 peptide … F47A): 0% | % of binding to wild-type peptide (ApoC3 peptide … S48A): 75.5% | % of binding to wild-type peptide (ApoC3 peptide … A39C): 77.5% | % of binding to wild-type peptide (ApoC3 peptide … F47C): 0% | % of binding to wild-type peptide (ApoC3 peptide … D45E): 40% | % of binding to wild-type peptide (ApoC3 peptide … G46E): 0% | % of binding to wild-type peptide (ApoC3 peptide … S49E): 0% | % of binding to wild-type peptide (ApoC3 peptide … V43G): 0.12% | % of binding to wild-type peptide (ApoC3 peptide … S49G): 0% | % of binding to wild-type peptide (ApoC3 peptide … S48H): 11.5% | % of binding to wild-type peptide (ApoC3 peptide … L50I): 9.47% | % of binding to wild-type peptide (ApoC3 peptide … S48K): 90% | % of binding to wild-type peptide (ApoC3 peptide … S49M): 1.86% | % of binding to wild-type peptide (ApoC3 peptide … K51M): 11.1% | % of binding to wild-type peptide (ApoC3 peptide … W42N): 118% | % of binding to wild-type peptide (ApoC3 peptide … S48N): 48.5% | % of binding to wild-type peptide (ApoC3 peptide … D45P): 0% | % of binding to wild-type peptide (ApoC3 peptide … R40Q): 85.8% | % of binding to wild-type peptide (ApoC3 peptide … T44Q): 0% | % of binding to wild-type peptide (ApoC3 peptide … S48Q): 46.8% | % of binding to wild-type peptide (ApoC3 peptide … S49R): 0.74% | % of binding to wild-type peptide (ApoC3 peptide … K51R): 57.4% | % of binding to wild-type peptide (ApoC3 peptide … D45S): 20.8% | % of binding to wild-type peptide (ApoC3 peptide … F47S): 0% | % of binding to wild-type peptide (ApoC3 peptide … A39V): 76% | % of binding to wild-type peptide (ApoC3 peptide … R40V): 57.5% | % of binding to wild-type peptide (ApoC3 peptide … G46V): 0% | % of binding to wild-type peptide (ApoC3 peptide … R40W): 38.8% | % of binding to wild-type peptide (ApoC3 peptide … G46W): 0% | % of binding to wild-type peptide (ApoC3 peptide … G46Y): 0%
B1: anti-ApoC3 antibody 14C7 (antibody, V domains shown)
VH: QVQVQESGPGLVKPSQTLSLTCTVSGGSITTNSYYWSWIRQPPGKGLEWMGAIDYSGDTYYSPSLKSRTSISRDTSKNQFTLQLTSVTPEDTAVYYCVSRIPTGEYWGQGTQVTVSS
VL: QTVVTQEPSLSVSPGGTVTLTCGLNSGSVTSSNYPDWYQQTPGQAPRLLIYNTNSRHSGVPSRFSGSISGNKAALTITGAQPEDEADYYCALYMGSDSVVFGGGTHLTVL
notes: it was detected with goat anti-human IgG (Fc); also called mAb 14C7; llama antibody 14C7
